Assay results taken from publication PMC12093976, “Characterization of 2-phenanthroyl-CoA reductase, an ATP-independent type III aryl-CoA reductase involved in anaerobic phenanthrene degradation” (Applied and Environmental Microbiology, 2025).

Tested on: T1, CC(C)(COP(=O)(O)OP(=O)(O)OC[C@H]1O[C@@H](n2cnc3c(N)ncnc32)[C@H](O)[C@@H]1OP(=O)(O)O)[C@@H](O)C(=O)NCCC(=O)NCCSC(=O)c1ccc2c(ccc3ccccc32)c1
T1 construct: codon-optimized gene in pASG-IBA103, C-terminal twin-Strep-tag, E. coli BL21(DE3); 72 kDa monomer; FMN, FAD, [4Fe-4S]; primers encode N-terminal MKLFEPIK and C-terminal LAALH
Experiment: LC/MS of dihydro-2-phenanthroyl-CoA formation, initial rates
Assay type: biochemical, uncultured Desulfobacterium sp.
Conditions: dithionite-reduced methyl viologen as electron donor, 1 mM NADH, 50 µM FMN, 1 mM FAD, 50 mM HEPES pH 7.5, 30 °C, anoxic, substrate varied 2-100 µM
Excerpt: LC/MS of dihydro-2-phenanthroyl-CoA formation, initial rates on 2-phenanthroyl-CoA reductase

2-phenanthroyl-CoA reductase (uncultured Desulfobacterium sp.)
Km: 1.8 µM | Vmax: 7.9 µmol/min/mg
